Reference: article doi:10.1101/2021.06.14.21258871

Target: recombinant stabilized complete spike protein (SARS-CoV-2), pre-fusion stabilised (SARS-CoV-2) (UniProt P0DTC2)
Assay: affinity purification with mass spectrometry

Work on “human serum albumin (from UniProt P02768 25-609) (natural protein)” yielded a mean MALDI-ToF peak intensity of eluted HSA of 1920 AU and a percent of samples in which HSA was detected in the eluate of 72%.
